In patent US20200140835:

Columns and labels:
[1] = system: Helical-III domain of SpCas9, supplied in trans
[2] = system: SpCas9 delta-Helical-III deletion F498-Q712 replaced by GGS linker (Streptococcus pyogenes); experiment: cleavage_in_vitro; settings: Helical-III in trans rescues ~100-fold; 5 mM MgCl2

Substance | cleavage with a PAM-distal mismatched target [1] | on-target cleavage rate (radiolabeled DNA cleavage assay) [1] | activity (fold decrease vs WT) [2]
SpCas9ΔHelical-III (ΔF498-Q712 with GGS linker) | had no effect on cleavage with a PAM-distal mismatched target | rescued the on-target cleavage rate by ˜100-fold in a concentration-dependent manner | –
lambda1-targeting sgRNA ; lambda1 on-target DNA | – | – | 1000
